# Assay results: patent publication US6566113B1, “Polypeptide having cellobiohydrolase activity” (Takara Shuzo Co., Ltd., priority 1998, dated 2003)
# B1: polypeptide of the present invention: polypeptide of SEQ ID NO:1 with thermostable cellobiohydrolase activity, expressed from open reading frame PH1171 of Pyrococcus horikoshii OT3 (protein)
# chain: ENTTYQTPTGIYYEVRGDTIYMINVTSGEETPIHLFGVNWFGFETPNHVVHGLWKRNWEDMLLQIKSLGFNAIRLPFCTESVKPGTQPIGIDYSKNPDLRGLDSLQIMEKIIKKAGDLGIFVLLDYHRIGCTHIEPLWYTEDFSEEDFINTWIEVAKRFGKYWNVIGADLKNEPHSVTSPPAAYTDGTGATWGMGNPATDWNLAAERIGKAILKVAPHWLIFVEGTQFTNPKTDSSYKWGYNAWWGGNLMAVKDYPVNLPRNKLVYSPHVYGPDVYNQPYFGPAKGFPDNLPDIWYHHFGYVKLELGYSVVIGEFGGKYGHGGDPRDVIWQNKLVDWMIENKFCDFFYWSWNPDSGDTGGILQDDWTTIWEDKYNNLKRLMDSCSKSSSSTQSVIRSTTPTKSNTSKKICGPAILIILAVFSLLLRRAPR
# modifications: Pyrococcus horikoshii OT3
# How the values were obtained:
# [1] = molecular target: polypeptide of the present invention (cellobiohydrolase, open reading frame PH1171) (Pyrococcus horikoshii, UniProt O58925); assay: Inhibition of pNPC-degrading activity by glucose, cellobiose and various reagents; assay type: biochemical, Pyrococcus horikoshii OT3; details: for inhibition of pNPC-degrading activity by dithiothreitol: up to 10 mM
# [2] = molecular target: Cellobiohydrolase from Thermotoga sp. FjSS-B.1; details: cellobiohydrolase of Thermotoga sp. FjSS-B.1; read-out: inhibition constant (Ki) for cellobiose; cited from earlier work
# [3] = pH and heat stability: remaining CMC-degrading / cellobiohydrolase activity after heating; assay type: biochemical
# Method: 25 μl of the polypeptide solution of the present invention and 25 μl of one of the buffers prepared in Example 3-(1) were mixed together. The mixture was heated at 95° C. for 10 minutes. 50 μl of 1% CMC solution in 0.1 M MES-NaOH buffer (pH 6.0) was added to 50 μl of a 50-fold dilution of the heated mixture with water. The mixture was reacted at 98° C. for 20 minutes. The amount of reducing sugar contained in a supernatant obtained by centrifuging the reaction mixture was measured according to the Park and Johnson method, and the CMC-degrading activity was calculated.
# CMC was dissolved in 0.1 M MES-NaOH buffer (pH 6.0) to prepare a 1% CMC solution (pH 6.0). 50 μl of the MES buffer was added to 50 μl of the polypeptide solution of the present invention. The mixture was heated at 95° C. for 0, 1, 5 or 24 hours. 50 μl of the 1% CMC solution was added to 50 μl of a 50-, 200- or 500-fold dilution of a supernatant obtained by centrifuging the heated mixture with the MES buffer. The mixture was reacted at 98° C. for 20 minutes. The amount of reducing sugar contained in the reaction mixture was measured according to the Park and Johnson method to determine the CMC-degrading activity.
# [4] = CMC-degrading activity (reducing ends, Park and Johnson method); assay type: biochemical
# Method: When cellulose is degraded using a cellulose hydrolase such as endoglucanase or cellobiohydrolase, reducing ends of glucose residues are newly generated. Then, increase in the amount of reducing end in a unit reaction time was measured according to the Park and Johnson method using carboxymethylcellulose (CMC) as a substrate in order to confirm whether or not a polypeptide having an activity of hydrolyzing cellulose which newly generates reducing ends of glucose residues existed in the Escherichia coli extract.
# A CMC solution was prepared by dissolving CMC (Sigma) in 100 mM sodium citrate buffer (pH 5.0) at a concentration of 1%. […] Absorbance at 690 nm was then measured. The amount of reducing end was determined as the amount of corresponding glucose based on a calibration curve prepared using glucose at a known concentration. […]
# 50 μl of a 50-fold dilution of the polypeptide solution of the present invention with water, 25 μl of a 2% CMC aqueous solution and 25 μl of one of the above-mentioned buffers were mixed together. […] The amount of reducing sugar contained in a supernatant obtained by centrifuging the reaction mixture was measured according to the Park and Johnson method, and the CMC-degrading activity was calculated. […]
# [5] = Identification of hydrolysis products by silica gel thin-layer chromatography; assay type: biochemical
# Method: The activity of hydrolyzing cellulose of the expressed polypeptide was identified as follows. Specifically, the expressed polypeptide solution was allowed to act on various substrates. Products were then identified on thin-layer chromatography.
# 75 μl of the expressed polypeptide solution was added to 75 μl of the phosphoric acid-swollen cellulose. The mixture was reacted at 98° C. for 8 hours. 60 μl of acetonitrile was added to the equal volume of the reaction mixture and mixed. A supernatant obtained by centrifugation was evaporated under reduced pressure to dryness. The residue was dissolved in 10 μl of water. 2 μl of the solution was subjected to silica gel thin-layer chromatography. Two rounds of development were carried out using silica gel 60F254 (Merck) as a thin-layer plate and ethanol:butanol:water=5:5:1 as a solvent for development. Orcinol-sulfuric acid reagent was sprayed onto the thin-layer plate after development and the plate was heated using a hot plate to observe the spots. […]
# Reactions were carried out as described above using oligosaccharides as substrates except that the dilution rate of the expressed polypeptide solution was 10 and the reaction time was 2 hours. Supernatants obtained by centrifuging the reaction mixtures were analyzed on silica gel thin-layer chromatography as described above.
# [6] = 4-MUC-degrading activity, specific activity of purified polypeptide; assay type: biochemical; details: 98° C., pH 6.0, 20 minutes
# Method: A supernatant obtained by centrifuging the heated supernatant was subjected to anion exchange chromatography using HiTrap Q column (Pharmacia). The sample was applied to two 5 ml HiTrap Q columns connected in series. Elution was carried out using a linear gradient in 20 minutes from 50 mM MES-NaOH buffer (pH 6.0) to the same buffer containing 200 mM NaCl at a flow rate of 2 ml/minute. 50 μl of 6 mM 4-MUC solution in 100 mM MES-NaOH buffer (pH 6.0) was added to 50 μl of one of the serial dilutions of the respective fractions. The mixture was reacted at 98° C. for 20 minutes. Fluorescence value was measured at an excitation wavelength of 355 nm and an emission wavelength of 460 nm. The 4-MUC-degrading activity was calculated based on the amount of released 4-MU.
# 2 ml of the active fraction from the hydrophobic column chromatography was desalted by ultrafiltration, lyophilized and then hydrolyzed in the presence of gas-phase HCl at 135° C. for 3 hours. The hydrolysate was dissolved in 100 μl of water. […] The polypeptide corresponding to 60 mU of the 4-MUC-degrading activity was subjected to the amino acid analysis. Thus, the specific activity was determined to be 17.0 U/mg.
# [7] = pNPC-degrading activity on synthetic substrate; assay type: biochemical; details: 5 mM pNPC, 98° C., 20 minutes, pH 6.0
# Method: 50 μl of 10 mM pNPC solution in 0.1 M MES-NaOH buffer (pH 6.0) was added to 50 μl of the polypeptide solution of the present invention or a 2-, 5- 10- or 20-fold dilution thereof with 0.1 M MES-NaOH buffer (pH 6.0). The mixture was reacted at 98° C. for 20 minutes. Absorbance at 405 nm of a supernatant obtained by centrifugation was measured to determine the pNPC-degrading activity based on the amount of released p-nitrophenol (pNP).
molecule,measurement,setting,value
"O=C(O)CN(CCN(CC(=O)O)CC(=O)O)CC(=O)O [EDTA, ethylenediaminetetraacetic acid]",inhibition at 1000 µM,"[1]; pH 6, read-out: inhibition of pNPC-degrading activity",~50%
same,inhibition of pNPC-degrading activity,"[1]; reagent at 1 mM, 5 mM pNPC, 98° C., pH 6.0",about 50%
O=C[C@H](O)[C@@H](O)[C@H](O[C@@H]1O[C@H](CO)[C@@H](O)[C@H](O)[C@H]1O)[C@H](O)CO [cellobiose],Ki,[2],200 µM
"O[C@H](CS)[C@H](O)CS (racemic) [DTT, dithiothreitol]",inhibition of pNPC-degrading activity by dithiothreitol,"[1]; 5 mM pNPC, 98° C., pH 6.0",not inhibited
same,inhibition of pNPC-degrading activity by dithiothreitol,"[1]; 5 mM pNPC, 98° C., pH 6.0, listed as dithiothreitol",Almost no inhibition
B1,activity after heating in the absence of a substrate,[3]; 95° C. for 10 minutes at pH 5 to 7,not decreased
same,retained CMC-degrading activity after heating,"[3]; 95° C. for 24 hours, pH 6.0",about 90%
same,remaining activity after heating,"[3]; 95° C., pH 6, heating for additional 24 hours",About 80%
same,retained activity after heating,[3]; in the presence of a substrate at pH 6 at 95° C. for 5 hours,about 90%
same,retained cellobiohydrolase activity after heat treatment,[3]; treatment at 75° C. for 20 minutes,≥ 80%
same,retained cellobiohydrolase activity after heat treatment,[3]; treatment at 95° C. for 10 minutes,≥ 80%
same,retained cellobiohydrolase activity after heat treatment,[3]; treatment at 95° C. for 5 hours,≥ 80%
same,activity relative to that in the presence of 0.5 M NaCl,[4]; 2.5 M NaCl,about 60%
same,activity relative to that in the presence of 0.5 M NaCl,[4]; absence of NaCl,about 80%
same,product from phosphoric acid-swollen cellulose (TLC),[5]; 98° C. for 8 hours,generation of cellobiose
same,product from cellooligosaccharides (TLC),"[5]; cellotriose, cellotetraose, cellopentaose, 10-fold dilution, 98° C., 2 hours, pH 6.0",principal degradation product was cellobiose
same,specific activity (4-MUC-degrading activity),[6],17.0 U/mg
same,pNPC-degrading activity versus amount of polypeptide,[7],increased depending on the concentration
